Here are results for 1 substance from patent US6340743.

This assay concerns the target Rabbit polymeric immunoglobulin receptor (pIgR), intact, expressed in transfected MDCK cells (pWe) (rabbit) (UniProt P01832). Briefly: cell-based or functional assay.
Chain of UniProt P01832 (P01832 19-773): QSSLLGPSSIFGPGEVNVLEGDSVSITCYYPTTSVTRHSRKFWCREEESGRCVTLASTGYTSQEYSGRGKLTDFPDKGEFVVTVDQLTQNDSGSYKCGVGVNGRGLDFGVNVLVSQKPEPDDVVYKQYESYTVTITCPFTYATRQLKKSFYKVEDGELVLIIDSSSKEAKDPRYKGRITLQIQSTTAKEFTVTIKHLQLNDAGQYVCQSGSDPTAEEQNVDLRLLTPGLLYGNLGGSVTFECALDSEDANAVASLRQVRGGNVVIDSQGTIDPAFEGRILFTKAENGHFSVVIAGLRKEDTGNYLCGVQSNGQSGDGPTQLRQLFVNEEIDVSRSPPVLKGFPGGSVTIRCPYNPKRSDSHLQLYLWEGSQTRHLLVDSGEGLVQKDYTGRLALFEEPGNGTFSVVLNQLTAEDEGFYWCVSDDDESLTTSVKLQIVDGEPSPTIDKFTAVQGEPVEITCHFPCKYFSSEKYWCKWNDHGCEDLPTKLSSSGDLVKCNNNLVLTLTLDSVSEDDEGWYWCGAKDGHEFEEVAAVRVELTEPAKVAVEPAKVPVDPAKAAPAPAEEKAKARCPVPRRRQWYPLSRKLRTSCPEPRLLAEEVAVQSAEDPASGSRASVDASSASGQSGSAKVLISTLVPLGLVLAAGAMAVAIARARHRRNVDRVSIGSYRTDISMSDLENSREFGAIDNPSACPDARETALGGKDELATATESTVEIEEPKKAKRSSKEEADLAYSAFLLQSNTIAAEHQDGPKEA

Consider Radio-iodinated IgA (antibody), for which the percent of ligand transcytosed from the apical to the basolateral surface lay within 5 to 6%.
